In patent publication US20190127473A1 (Dana-Farber, published 2019):

Experiments:
[1] = target: T1, recombinant human galectin-2 (human, UniProt P05162 2-132, limits assumed); test: SPR (BIAcore 3000), 8F4 captured by anti-mouse antibody on CM-5 chip, galectin as analyte
T1 construct: Bought; also called Gal2; Ga12 (so in the source)
T1 sequence (looked up): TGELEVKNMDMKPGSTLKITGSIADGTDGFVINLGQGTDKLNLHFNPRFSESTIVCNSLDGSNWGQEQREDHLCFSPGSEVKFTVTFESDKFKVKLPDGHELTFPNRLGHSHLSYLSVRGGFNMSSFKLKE
Description: (§1) Surface Plasmon Resonance (SPR) analyses (also called Biomolecular Interaction Analysis, BlAcore) were also conducted in order to further define the biophysical properties (e.g., kₒₙ, koff, koffkₒₙ (KD) of Gal1's interaction with the 8F4 mAb. SPR experiments were performed at 25° C. in the standard BlAcore running buffer HBS-EP on a BlAcore 3000 Instrument (BlAcore). In brief, anti-mouse antibody was first captured on the CM-5 sensor chip (GE HealthCare). Afterwards, approximately 250 response units (RU) of the 8F4 anti-Gal1 mAb were immobilized (with exception of ˜350 RU for rmGal1 assay) and followed by various dilutions of recombinant galectin (human galetin-1, 2, 3, 4, 7, 8, 9 or murine galectin-1 (mGal1), from R&D Systems) to assess the binding of galectin to 8F4. All data are shown after subtraction from a channel loaded with buffer alone. Data analysis to obtain the binding curves shown and equilibrium dissociation constant (KD) was performed using BlAevaluation 3.1 (BlAcore) by globally fitting the data to a simple 1:1 (Langmuir) binding model.

[2] = target: T2, recombinant human galectin-3 (human, UniProt P17931 2-250); test: as above
T2 construct: Bought; also called Gal3; Ga13 (so in the source)
T2 sequence (P17931 2-250 limits assumed): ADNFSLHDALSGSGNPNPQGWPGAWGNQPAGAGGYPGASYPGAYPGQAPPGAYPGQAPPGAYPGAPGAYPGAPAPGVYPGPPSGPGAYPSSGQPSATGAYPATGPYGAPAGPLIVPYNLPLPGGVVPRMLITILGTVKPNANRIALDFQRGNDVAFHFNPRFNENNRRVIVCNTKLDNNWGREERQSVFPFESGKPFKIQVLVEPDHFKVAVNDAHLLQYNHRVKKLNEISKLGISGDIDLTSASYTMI
Description: as §1

[3] = target: T3, recombinant human galectin-4 (human, UniProt P56470 2-323, limits assumed); test: as above
T3 construct: Bought; also called Gal4; Ga14 (so in the source)
T3 sequence (looked up): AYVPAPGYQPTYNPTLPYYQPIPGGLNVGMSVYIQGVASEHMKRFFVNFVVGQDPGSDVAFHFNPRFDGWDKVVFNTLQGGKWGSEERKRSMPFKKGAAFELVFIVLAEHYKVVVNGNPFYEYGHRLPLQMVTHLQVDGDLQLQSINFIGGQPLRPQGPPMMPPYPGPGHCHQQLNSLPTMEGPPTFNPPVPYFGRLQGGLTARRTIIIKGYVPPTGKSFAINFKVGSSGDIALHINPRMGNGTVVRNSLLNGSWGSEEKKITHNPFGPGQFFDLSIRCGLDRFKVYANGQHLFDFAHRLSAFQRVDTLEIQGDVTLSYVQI
Description: as §1

[4] = target: T4, recombinant human galectin-7 (human, UniProt P47929 2-136, limits assumed); test: as above
T4 construct: Bought; also called Gal7; Ga17 (so in the source)
T4 sequence (P47929 2-136 limits assumed): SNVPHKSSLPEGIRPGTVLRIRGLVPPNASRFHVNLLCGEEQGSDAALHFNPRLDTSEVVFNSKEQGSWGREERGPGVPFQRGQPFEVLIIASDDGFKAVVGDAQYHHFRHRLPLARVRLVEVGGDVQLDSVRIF
Description: as §1

[5] = target: T5, recombinant human galectin-8 (human, UniProt O00214 1-317, limits assumed); test: as above
T5 construct: Bought; also called Gal8; Ga18 (so in the source)
T5 sequence (looked up): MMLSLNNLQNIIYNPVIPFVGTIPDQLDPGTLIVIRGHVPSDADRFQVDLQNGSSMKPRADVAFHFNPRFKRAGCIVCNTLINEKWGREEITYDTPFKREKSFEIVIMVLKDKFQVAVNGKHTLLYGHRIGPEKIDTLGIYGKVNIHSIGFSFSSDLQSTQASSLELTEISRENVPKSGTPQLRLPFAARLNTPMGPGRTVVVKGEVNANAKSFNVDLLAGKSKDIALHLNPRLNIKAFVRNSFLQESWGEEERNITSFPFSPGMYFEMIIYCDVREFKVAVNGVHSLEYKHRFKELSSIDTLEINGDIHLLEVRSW
Description: as §1

[6] = target: T6, recombinant human galectin-9 (human, UniProt O00182-2 2-323, limits assumed); test: as above
T6 construct: Bought; also called Gal9; Ga19 (so in the source)
T6 sequence (O00182 other isoform, or with tags, fused parts or gaps limits assumed): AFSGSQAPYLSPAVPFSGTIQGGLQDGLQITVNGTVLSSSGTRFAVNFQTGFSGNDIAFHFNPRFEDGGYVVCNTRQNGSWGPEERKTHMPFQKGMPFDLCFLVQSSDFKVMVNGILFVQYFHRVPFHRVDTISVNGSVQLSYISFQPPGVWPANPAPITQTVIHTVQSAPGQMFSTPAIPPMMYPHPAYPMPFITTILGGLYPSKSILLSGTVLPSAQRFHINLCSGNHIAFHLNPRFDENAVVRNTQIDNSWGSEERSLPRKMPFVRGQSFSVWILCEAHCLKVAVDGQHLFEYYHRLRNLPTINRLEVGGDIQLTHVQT
Description: as §1

[7] = target: T7, human galectin-1 (Gal1) (human, UniProt P09382 2-135); test: SPR (BIAcore 3000, 25 C, HBS-EP), 8F4 captured by anti-mouse antibody on CM-5 chip, galectin as analyte, 1:1 Langmuir fit; rhGal1 as analyte; ~250 RU of 8F4 captured
T7 construct: Used as recombinant protein bought from R&D Systems (SPR) and as endogenous protein in L428 cell lysate (Western blot); also called hGal1; rhGal1
T7 sequence (P09382 2-135 limits assumed): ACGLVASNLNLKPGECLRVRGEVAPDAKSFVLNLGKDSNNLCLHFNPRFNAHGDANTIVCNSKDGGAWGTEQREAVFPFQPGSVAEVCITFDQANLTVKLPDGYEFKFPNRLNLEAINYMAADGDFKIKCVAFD
Description: as §1

[8] = target: T8, mouse galectin-1 (Gal1) (mouse, UniProt P16045 2-135); test: SPR (BIAcore 3000, 25 C, HBS-EP), 8F4 captured by anti-mouse antibody on CM-5 chip, galectin as analyte, 1:1 Langmuir fit; rmGal1 as analyte; ~350 RU of 8F4 captured
T8 construct: Used as recombinant protein bought from R&D Systems (SPR) and as endogenous protein in B16-F10 cell lysate (Western blot); also called mGal1; rmGal1
T8 sequence (P16045 2-135 limits assumed): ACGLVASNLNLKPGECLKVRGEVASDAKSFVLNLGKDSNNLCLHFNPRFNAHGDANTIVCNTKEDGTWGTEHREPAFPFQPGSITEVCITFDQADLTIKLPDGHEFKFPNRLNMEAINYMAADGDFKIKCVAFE
Description: as §1

binding result [1]: no binding | binding result [2]: no binding | binding result [3]: no binding | binding result [4]: no binding | binding result [5]: no binding | binding result [6]: no binding | Kd [7]: 13 nM | Kd [8]: 38.5 nM
B1: 8F4 anti-Gal1 monoclonal antibody (antibody, V domains shown)
VH: EVQLQQSVAEFVRPGASVRLSCTASGFNIKNTYIHWVRQRPEQGLEWIGKIDPANGNTKYVPEFQGKATMTADTSSNTVYLHLSSLTSEDTAIYYCVDGYYGWYFAVWGTGTTVTVSS
VL: QAVVTQESALTTSPGETVTLTCRSSTGAVTTSNYANWVQEKPDHLFTGLIGATNNRAPGVPARFSGSLIGDKAVLTITGAQTEDEAIYFCALWYRNHFIFGSGTKVTVL
notes: Hybridoma monoclonal antibody; The light chain is lambda; Hybridoma 8F4.F8.G7 is deposited as ATCC PTA-10535; also called 8F4 mAb; 8F4.F8.G7
